Measured values: US20140011978A1 (EPFL TTO, published 2014)

Assays:
Experiment in all cases: ELISA: growth factor coated, Fg fragment in solution, A450 (methods analogous to Example 3)
[1] = target: T1, NT-3 (UniProt P20783 139-257)
T1 sequence (looked up): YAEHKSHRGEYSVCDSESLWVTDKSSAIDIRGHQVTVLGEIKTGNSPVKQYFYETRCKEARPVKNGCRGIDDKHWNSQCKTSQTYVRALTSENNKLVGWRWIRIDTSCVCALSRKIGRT
Method: (§1) ELISA plates were coated with cytokines or BSA and further incubated with TNC III1-5 to analyze binding of TNC III1-5 to a wide variety of cytokines. […] A large amount of heparin (4 μM) impaired binding of TNC III1-5 to these cytokines. Results are depicted in FIG. 3. Method: 50 nM of cytokine was coated for (1 hr, 37° C.). After blocking with 2% BSA (1 hr, RT). 100 nM TNC III1-5 was applied in PBST (0.05% tween, 0.1% bovine serum albumin (BSA)) (1 hr, RT). TNC III1-5 was detected with horseradish peroxidase (HRP)-anti-HIS in PBST (1 hr, RT) and developed with 3,3′,5,5′-tetramethylbenzidine (TMB), a soluble colorimetric HRP […]. Addition of sulfuric acid stop solution changes the color to yellow, enabling accurate measurement of the intensity at 450 nm using a spectrophotometer or plate reader. […] Heparin (4 μM) was added to TNC III1-5 to test the effect of blocking the heparin binding site of TNC III1-5, which has been defined as domain TNC III5 (Weber, Zimmermann, et al., 1995).
(§2) ELISA plates were coated with cytokines or BSA and further incubated with Fg β15-66 to analyze binding of […] to a wide variety of cytokines. […] Results are depicted in FIG. 4. Method: The methods were analogous to those used in Example 3.

[2] = target: T2, FGF-10 (UniProt O15520 38-208)
T2 sequence (looked up): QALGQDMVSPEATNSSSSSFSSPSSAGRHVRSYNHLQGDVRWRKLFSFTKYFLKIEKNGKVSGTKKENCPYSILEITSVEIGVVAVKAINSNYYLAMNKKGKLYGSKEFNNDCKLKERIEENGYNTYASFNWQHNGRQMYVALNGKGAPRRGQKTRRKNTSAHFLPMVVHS
Method: as §1, §2

[3] = target: T3, TGF-β3 (Natural form is a disulfide-linked homodimer; one protomer is given.)
T3 chain: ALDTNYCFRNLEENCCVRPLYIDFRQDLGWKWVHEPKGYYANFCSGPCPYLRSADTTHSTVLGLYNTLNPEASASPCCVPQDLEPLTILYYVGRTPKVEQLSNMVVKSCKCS
Method: as §1, §2

[4] = target: T4, PlGF-1 (UniProt P49763-2 19-149)
T4 sequence (looked up): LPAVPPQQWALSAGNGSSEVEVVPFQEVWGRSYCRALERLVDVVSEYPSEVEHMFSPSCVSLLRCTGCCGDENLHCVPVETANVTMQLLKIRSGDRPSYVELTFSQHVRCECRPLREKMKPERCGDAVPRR
Method: as §1, §2

[5] = target: EGF
Method: as §1, §2

[6] = target: BMP-2 (UniProt P12643 283-396)
Method: as §1, §2

[7] = target: T5, FGF-6 (UniProt P10767 38-208, limits assumed)
T5 sequence (looked up): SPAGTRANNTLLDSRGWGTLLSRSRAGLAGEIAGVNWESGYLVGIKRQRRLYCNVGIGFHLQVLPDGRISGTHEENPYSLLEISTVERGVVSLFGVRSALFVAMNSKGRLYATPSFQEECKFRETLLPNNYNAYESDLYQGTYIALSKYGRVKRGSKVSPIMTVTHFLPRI
Method: as §1, §2

[8] = target: VEGF-A165 (UniProt P15692-4 27-191)
Method: as §1, §2

[9] = target: T6, FGF-7 (UniProt P21781 32-194)
T6 sequence (looked up): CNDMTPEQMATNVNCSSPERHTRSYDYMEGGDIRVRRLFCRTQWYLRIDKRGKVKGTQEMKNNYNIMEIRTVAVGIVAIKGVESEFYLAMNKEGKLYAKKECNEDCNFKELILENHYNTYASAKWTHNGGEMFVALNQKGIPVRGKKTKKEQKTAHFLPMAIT
Method: as §1, §2

[10] = target: T7, BDNF (UniProt P23560 129-247)
T7 construct: also called brain-derived neurotrophic factor
T7 sequence (looked up): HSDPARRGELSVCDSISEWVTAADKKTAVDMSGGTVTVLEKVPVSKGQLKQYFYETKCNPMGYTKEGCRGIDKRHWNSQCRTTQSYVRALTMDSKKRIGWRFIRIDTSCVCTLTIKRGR
Method: as §1, §2

[11] = target: PDGF-DD (UniProt Q9GZP0 250-370)
Method: as §1, §2

[12] = target: IGF-BP3 (UniProt P17936 28-291)
Method: as §1, §2

[13] = target: T8, TGF-β2 (UniProt P61812 303-414)
T8 sequence (looked up): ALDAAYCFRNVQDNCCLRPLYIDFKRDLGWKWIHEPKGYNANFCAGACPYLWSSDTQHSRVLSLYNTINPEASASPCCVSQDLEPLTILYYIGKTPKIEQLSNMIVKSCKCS
Method: as §1, §2

Sequence of PDGF-DD (Q9GZP0 250-370): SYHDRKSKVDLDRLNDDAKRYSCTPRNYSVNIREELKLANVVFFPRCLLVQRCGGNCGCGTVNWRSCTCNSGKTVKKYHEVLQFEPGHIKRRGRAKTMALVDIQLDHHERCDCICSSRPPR
Sequence of IGF-BP3 (P17936 28-291 limits assumed): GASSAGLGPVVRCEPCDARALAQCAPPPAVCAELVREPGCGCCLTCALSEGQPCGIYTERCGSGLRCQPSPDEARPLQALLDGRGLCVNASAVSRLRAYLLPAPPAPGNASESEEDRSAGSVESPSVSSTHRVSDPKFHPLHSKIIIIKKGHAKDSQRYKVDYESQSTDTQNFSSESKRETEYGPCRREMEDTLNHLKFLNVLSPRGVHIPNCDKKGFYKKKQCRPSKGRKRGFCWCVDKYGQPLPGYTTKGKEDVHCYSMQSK
Sequence of BMP-2 (P12643 283-396 limits assumed): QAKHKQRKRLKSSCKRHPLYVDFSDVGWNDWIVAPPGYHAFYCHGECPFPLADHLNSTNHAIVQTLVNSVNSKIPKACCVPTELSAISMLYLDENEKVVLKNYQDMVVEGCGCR
Sequence of VEGF-A165 (P15692 other isoform, or with tags, fused parts or gaps limits assumed): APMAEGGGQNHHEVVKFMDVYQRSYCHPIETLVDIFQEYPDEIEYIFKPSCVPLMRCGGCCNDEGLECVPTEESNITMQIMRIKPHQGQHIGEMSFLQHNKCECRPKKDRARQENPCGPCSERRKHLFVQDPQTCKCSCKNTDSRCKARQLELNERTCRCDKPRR

B1: Fg β15-66 (other)
chain: GSNQEQVSPLGHRPLDKKREEAPSLRPAPPPISGGGYRARPAKAAATQKKVERKAPDAGGCGHHHHHH
notes: Made as a GST fusion; GST was cleaved off; also called TG-Fg β15-66; fibrinogen β15-66 domain
binding result [1]: binds | binding result [2]: binds | binding result [3]: no binding | binding result [4]: no binding | binding result [5]: no binding | binding result [6]: binds | binding result [7]: no binding | binding result [8]: binds | binding result [9]: binds | binding result [10]: binds | binding result [11]: binds | binding result [12]: binds | binding result [13]: binds
